# Assay results as given in patent publication US6753413.
# Experiments:
# GST-C48 (SEQ. ID NO 4) = test system: T1, GST-C48 (SEQ. ID NO 4)
# T1 sequence: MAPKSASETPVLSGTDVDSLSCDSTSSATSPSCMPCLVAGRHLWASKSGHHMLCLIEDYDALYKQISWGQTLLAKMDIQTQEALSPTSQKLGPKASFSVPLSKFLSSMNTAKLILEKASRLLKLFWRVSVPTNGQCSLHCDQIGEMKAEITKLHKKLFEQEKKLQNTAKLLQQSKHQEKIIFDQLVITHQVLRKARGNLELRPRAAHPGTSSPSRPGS
# GST-C53 (SEQ ID NO 6) = test system: T2, GST-C53 (SEQ ID NO 6)
# T2 sequence: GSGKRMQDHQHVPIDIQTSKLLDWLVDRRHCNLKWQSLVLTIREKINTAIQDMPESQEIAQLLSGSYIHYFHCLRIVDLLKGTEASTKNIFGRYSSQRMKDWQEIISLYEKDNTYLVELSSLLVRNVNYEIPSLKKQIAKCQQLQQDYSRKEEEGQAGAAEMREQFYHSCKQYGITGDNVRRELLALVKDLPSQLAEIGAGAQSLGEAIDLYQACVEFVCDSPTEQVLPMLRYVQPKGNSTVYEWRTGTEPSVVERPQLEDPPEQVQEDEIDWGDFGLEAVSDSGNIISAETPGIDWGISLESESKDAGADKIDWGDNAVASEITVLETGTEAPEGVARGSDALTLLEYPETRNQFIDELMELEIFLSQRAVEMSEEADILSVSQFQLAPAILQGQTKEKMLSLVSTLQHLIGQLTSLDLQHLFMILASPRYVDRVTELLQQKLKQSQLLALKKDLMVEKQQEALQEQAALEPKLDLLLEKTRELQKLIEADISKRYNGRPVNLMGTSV
# [1] = target: reconstituted Nclk (GST-p25/GST-Cdk5 complex) [GST: P08515]; assay: cell-based or functional assay
Substance,"phosphorylation by reconstituted Nclk (autoradiograph, Mg[γ-32P]ATP) (GST-C48 (SEQ. ID NO 4))","phosphorylation by reconstituted Nclk (autoradiograph, Mg[γ-32P]ATP) (GST-C53 (SEQ ID NO 6))",inhibition of Cdk5 kinase activity [1] [%]
reconstituted Nclk (GST-p25/GST-Cdk5 complex),"the SEQ ID NO 4 (C48) and SEQ ID NO 6 (C53) proteins, but not the SEQ ID NO 2 (C42) protein, were phosphorylated by Cdk5 kinase","the SEQ ID NO 4 (C48) and SEQ ID NO 6 (C53) proteins, but not the SEQ ID NO 2 (C42) protein, were phosphorylated by Cdk5 kinase",
GST-C48 (SEQ. ID NO 4) (from UniProt Q9JLH5 1686-1903),,,< 20
GST-C53 (SEQ ID NO 6) (from UniProt Q9JLH7 1-504),,,< 20
